In patent US20260176358A1 (JIANGSU HENGRUI PHARMACEUTICALS, published 2026):
Like-named read-outs stand apart in the source and are kept apart here.

Tests used:
[1] = molecular target: T1, PACAP27 (UniProt P18509 132-158, biotinylated in the ELISAs); test: ELISA, biotinylated peptide on streptavidin plate
T1 peptide (looked up): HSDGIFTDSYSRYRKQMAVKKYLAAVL
Protocol: (§1) In this test example, the abilities of the chimeric antibodies and humanized antibodies of C1 #, C9 #, C21 #, and C28 #to bind to human CGRP and rat CGRP were assessed using ELISAs. Plates were coated with […] human CGRP and rat CGRP, respectively, and blocked, and the antibodies, serially diluted, were then added. The plates were incubated for 1 h and washed, and a horseradish peroxidase-labeled anti-human Fc secondary antibody was then added. After incubation, color development was performed. […] The plates were incubated for 1 h and washed, and the antibodies, serially diluted, were then added. The plates were incubated for 1 h and washed, and a horseradish peroxidase-labeled streptavidin secondary antibody was then added. After incubation, color development was performed.

[2] = molecular target: T2, PACAP38 (UniProt P18509 132-169, biotinylated in the ELISAs); test: ELISA, biotinylated peptide on streptavidin plate
T2 peptide (looked up): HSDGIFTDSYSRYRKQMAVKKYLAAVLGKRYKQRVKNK
Protocol: as §1

[3] = molecular target: T2, PACAP38; test: competition ELISA, biotinylated PACAP38 to coated VPAC2-Fc
Protocol: (§2) The plates were incubated for 1 h and washed, and a horseradish peroxidase-labeled streptavidin secondary antibody was then added. After incubation, color development was performed.

[4] = molecular target: T3, VIP (UniProt P01282 125-152, biotinylated in the ELISA); test: ELISA, biotinylated VIP on streptavidin plate
T3 construct: also called vasoactive intestinal peptide
T3 peptide (looked up): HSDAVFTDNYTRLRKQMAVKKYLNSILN
Protocol: as §1

[5] = molecular target: T2, PACAP38; test: competition ELISA, biotinylated PACAP38 to coated PAC1-Fc
Protocol: as §2

[6] = molecular target: T2, PACAP38; test: competition ELISA, biotinylated PACAP38 to coated VPAC1-Fc
Protocol: as §2

[7] = molecular target: T2, PACAP38; test: cell-based or functional assay
[8] = molecular target: T1, PACAP27; test: ELISA, antibody on coated anti-human Fc, biotinylated peptide
Protocol: (§3) Plates were coated with 1 μg/mL anti-human Fc and blocked, and the antibodies, serially diluted, were added. […] The plates were incubated for 1 h and washed, and a horseradish peroxidase-labeled streptavidin secondary antibody was then added. After incubation, color development was performed.

[9] = molecular target: T2, PACAP38; test: as above
Protocol: as §3

[10] = molecular target: T2, PACAP38; test: cell-based or functional assay

| Binder | EC50 [1] [nM] | EC50 [2] [nM] | IC50 [3] [nM] | binding result [4] | IC50 [5] [nM] | IC50 [6] [nM] | IC50, inhibition of cAMP production in SH-SY5Y cells [7] [nM] | EC50 [8] [nM] | EC50 [9] [nM] | IC50, inhibition of cAMP production in SH-SY5Y cells [10] [nM] |
| --- | --- | --- | --- | --- | --- | --- | --- | --- | --- | --- |
| P14#-CHI (antibody, human IgG1, kappa, V domains shown, chimeric: murine variable regions fused to human constant regions; also called P14#-CH1) VH: DVKLVESGGGLVKPGGSLKVSCAASGFAFNNYDMSWVRQTPEKRLDWVATITGGGSYTWYPDSVKGRFTISRDNARNTLFLQMSSLRSEDTALYYCARLNGYDQAGAMDYWGQGTSVTVSS VL: not shown | 0.14 | 0.09 | 0.23 | no binding | 0.48 | 0.27 | 1.46 | – | – | – |
| P14H1L2 (antibody, human IgG1, kappa, V domains shown) VH: EVQLVESGGGLVKPGGSLRLSCAASGFAFNNYDMSWVRQAPGKGLEWVATITGGGSYTWYPDSVKGRFTISRDNAKNSLYLQMNSLRAEDTAVYYCARLTGYDQAGAMDYWGQGTTVTVSS VL: DIVLTQSPDSLAVSLGERATINCKASQSVDYDGDSYMTWYQQKPGQPPKLLIYAASNLDSGIPDRFSGSGSGTDFTLTISSLQAEDVAVYYCQQSNEDPWTFGGGTKVEIKR | 0.19 | 0.09 | 0.18 | no binding | 0.45 | 0.19 | 2.37 | – | – | – |
| P14H2L3 (antibody, human IgG1, kappa, V domains shown) VH: EVQLVESGGGLVQPGGSLRLSCAASGFAFNNYDMSWVRQAPGKGLEWVATITGGGSYTWYPDSVKGRFTISRDNAKNSLYLQMNSLRAEDTAVYYCARLTGYDQAGAMDYWGQGTTVTVSS VL: DIVLTQSPDSLAVSLGERATINCKASQSVDYDGDSYMTWYQQKPGQPPKLLIYAASHLDSGIPDRFSGSGSGTDFTLTISSLQAEDVAVYYCQQSNEDPWTFGGGTKVEIKR | 0.2 | 0.09 | 0.4 | no binding | 0.67 | 0.58 | 4.02 | 0.16 | 0.13 | 2.4 |
| P14H1L1 (antibody, human IgG1, kappa, V domains shown) VH: EVQLVESGGGLVKPGGSLRLSCAASGFAFNNYDMSWVRQAPGKGLEWVATITGGGSYTWYPDSVKGRFTISRDNAKNSLYLQMNSLRAEDTAVYYCARLTGYDQAGAMDYWGQGTTVTVSS VL: DIVMTQSPDSLAVSLGERATINCKASQSVDYDGDSYMTWYQQKPGQPPKLLIYAASNLDSGVPDRFSGSGSGTDFTLTISSLQAEDVAVYYCQQSNEDPWTFGGGTKVEIKR | 0.19 | 0.11 | 0.21 | no binding | 0.51 | 0.2 | – | – | – | – |
